Measured values reported in patent publication US20190177417A1 (BIOATLA, published 2019).

Experiments:
Axl protein [1] = target: T1, Axl protein (human, UniProt P30530 26-451); assay: ELISA, 1:3 dilution, pH 6.0 over pH 7.4
T1 construct: extracellular domain; also called human Axl; hAxl
T1 sequence (looked up): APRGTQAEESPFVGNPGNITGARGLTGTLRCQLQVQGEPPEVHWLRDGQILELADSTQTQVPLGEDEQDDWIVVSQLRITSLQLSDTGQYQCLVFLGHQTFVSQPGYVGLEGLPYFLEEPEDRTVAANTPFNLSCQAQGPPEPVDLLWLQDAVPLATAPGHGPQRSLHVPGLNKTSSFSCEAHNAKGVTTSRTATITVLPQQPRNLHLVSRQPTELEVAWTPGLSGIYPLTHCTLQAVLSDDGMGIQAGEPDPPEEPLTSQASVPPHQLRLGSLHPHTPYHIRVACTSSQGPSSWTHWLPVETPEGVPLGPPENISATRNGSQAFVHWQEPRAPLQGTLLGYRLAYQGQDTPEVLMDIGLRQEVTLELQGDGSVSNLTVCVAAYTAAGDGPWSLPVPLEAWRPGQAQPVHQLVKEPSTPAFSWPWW

Axl protein [2] = target: T1, Axl protein; assay: ELISA, 1:9 dilution, pH 6.0 over pH 7.4

B1: HC-E102G (antibody, V domains shown)
VH: EVQLVQSGAEVKKPGATVKISCKVSGYSFTGHTMNWIRQPPGKGLEWIGLIKPSNGGTSYNQKFKGRVTISADKSISTAYLQWSSLKASDTAMYYCAHGHYGSYFAMDYWGQGTLVTVSS
VL: DIQMTQSPSSLSASVGDRVTITCKASQDVSSAVAWYQQKPGQAPRLLIYWASTRHTGVPSRFSGSGSGTEFTLTISSLQPDDFATYYCQEHFSTPLTFGQGTKVEIK
- Affinity ELISA CPE mutant ratio (1:3, pH 6.0/7.4) (Axl protein [1]): 1.8 ratio
- Affinity ELISA CPE mutant ratio (1:9, pH 6.0/7.4) (Axl protein [2]): 2.68 ratio

B2: HC-A106D (antibody, V domains shown)
VH: EVQLVQSGAEVKKPGATVKISCKVSGYSFTGHTMNWIRQPPGKGLEWIGLIKPSNGGTSYNQKFKGRVTISADKSISTAYLQWSSLKASDTAMYYCAHGHYESYFDMDYWGQGTLVTVSS
VL: DIQMTQSPSSLSASVGDRVTITCKASQDVSSAVAWYQQKPGQAPRLLIYWASTRHTGVPSRFSGSGSGTEFTLTISSLQPDDFATYYCQEHFSTPLTFGQGTKVEIK
- Affinity ELISA CPE mutant ratio (1:3, pH 6.0/7.4) (Axl protein [1]): 3.39 ratio
- Affinity ELISA CPE mutant ratio (1:9, pH 6.0/7.4) (Axl protein [2]): 2.51 ratio

B3: HC-W110T (antibody, V domains shown)
VH: EVQLVQSGAEVKKPGATVKISCKVSGYSFTGHTMNWIRQPPGKGLEWIGLIKPSNGGTSYNQKFKGRVTISADKSISTAYLQWSSLKASDTAMYYCAHGHYESYFAMDYTGQGTLVTVSS
VL: DIQMTQSPSSLSASVGDRVTITCKASQDVSSAVAWYQQKPGQAPRLLIYWASTRHTGVPSRFSGSGSGTEFTLTISSLQPDDFATYYCQEHFSTPLTFGQGTKVEIK
- Affinity ELISA CPE mutant ratio (1:3, pH 6.0/7.4) (Axl protein [1]): 7.47 ratio
- Affinity ELISA CPE mutant ratio (1:9, pH 6.0/7.4) (Axl protein [2]): 1.37 ratio

B4: HC-F105V (antibody, V domains shown)
VH: EVQLVQSGAEVKKPGATVKISCKVSGYSFTGHTMNWIRQPPGKGLEWIGLIKPSNGGTSYNQKFKGRVTISADKSISTAYLQWSSLKASDTAMYYCAHGHYESYVAMDYWGQGTLVTVSS
VL: DIQMTQSPSSLSASVGDRVTITCKASQDVSSAVAWYQQKPGQAPRLLIYWASTRHTGVPSRFSGSGSGTEFTLTISSLQPDDFATYYCQEHFSTPLTFGQGTKVEIK
- Affinity ELISA CPE mutant ratio (1:3, pH 6.0/7.4) (Axl protein [1]): 2.43 ratio
- Affinity ELISA CPE mutant ratio (1:9, pH 6.0/7.4) (Axl protein [2]): 2.8 ratio

B5: HC-E102H (antibody, V domains shown)
VH: EVQLVQSGAEVKKPGATVKISCKVSGYSFTGHTMNWIRQPPGKGLEWIGLIKPSNGGTSYNQKFKGRVTISADKSISTAYLQWSSLKASDTAMYYCAHGHYHSYFAMDYWGQGTLVTVSS
VL: DIQMTQSPSSLSASVGDRVTITCKASQDVSSAVAWYQQKPGQAPRLLIYWASTRHTGVPSRFSGSGSGTEFTLTISSLQPDDFATYYCQEHFSTPLTFGQGTKVEIK
- Affinity ELISA CPE mutant ratio (1:3, pH 6.0/7.4) (Axl protein [1]): 2.08 ratio
- Affinity ELISA CPE mutant ratio (1:9, pH 6.0/7.4) (Axl protein [2]): 2.31 ratio

B6: HC-A106G (antibody, V domains shown)
VH: EVQLVQSGAEVKKPGATVKISCKVSGYSFTGHTMNWIRQPPGKGLEWIGLIKPSNGGTSYNQKFKGRVTISADKSISTAYLQWSSLKASDTAMYYCAHGHYESYFGMDYWGQGTLVTVSS
VL: DIQMTQSPSSLSASVGDRVTITCKASQDVSSAVAWYQQKPGQAPRLLIYWASTRHTGVPSRFSGSGSGTEFTLTISSLQPDDFATYYCQEHFSTPLTFGQGTKVEIK
- Affinity ELISA CPE mutant ratio (1:3, pH 6.0/7.4) (Axl protein [1]): 1.52 ratio
- Affinity ELISA CPE mutant ratio (1:9, pH 6.0/7.4) (Axl protein [2]): 2.2 ratio

B7: HC-E102M (antibody, V domains shown)
VH: EVQLVQSGAEVKKPGATVKISCKVSGYSFTGHTMNWIRQPPGKGLEWIGLIKPSNGGTSYNQKFKGRVTISADKSISTAYLQWSSLKASDTAMYYCAHGHYMSYFAMDYWGQGTLVTVSS
VL: DIQMTQSPSSLSASVGDRVTITCKASQDVSSAVAWYQQKPGQAPRLLIYWASTRHTGVPSRFSGSGSGTEFTLTISSLQPDDFATYYCQEHFSTPLTFGQGTKVEIK
- Affinity ELISA CPE mutant ratio (1:3, pH 6.0/7.4) (Axl protein [1]): 2.08 ratio
- Affinity ELISA CPE mutant ratio (1:9, pH 6.0/7.4) (Axl protein [2]): 2.36 ratio
